The values below come from patent publication EP2544694B1 (Novelmed Therapeutics, Inc., dated 2018).

The target in this test is human properdin (human, UniProt P27918 28-469). The test is described as follows: cell-based or functional assay.
Chain of human properdin (P27918 28-469 limits assumed): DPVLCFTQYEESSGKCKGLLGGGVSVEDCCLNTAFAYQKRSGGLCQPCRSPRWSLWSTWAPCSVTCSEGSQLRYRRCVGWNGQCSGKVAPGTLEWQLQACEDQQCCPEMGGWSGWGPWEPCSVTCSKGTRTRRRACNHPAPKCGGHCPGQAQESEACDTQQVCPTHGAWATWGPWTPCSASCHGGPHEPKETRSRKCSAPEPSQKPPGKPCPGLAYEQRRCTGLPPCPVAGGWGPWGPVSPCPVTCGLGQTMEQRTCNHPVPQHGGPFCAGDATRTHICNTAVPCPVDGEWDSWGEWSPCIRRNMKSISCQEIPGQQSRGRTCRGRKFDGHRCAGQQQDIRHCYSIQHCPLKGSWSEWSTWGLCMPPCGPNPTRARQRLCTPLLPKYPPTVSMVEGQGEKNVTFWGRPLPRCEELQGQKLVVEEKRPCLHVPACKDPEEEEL

B1: anti-properdin monoclonal antibody IgG (14G11) (antibody, V domains shown)
VH: QVTLKESGPGILQPSQTLSLTCSFSGFSLSTSGMGVGWIRQPSGKGLEWLAHIWWDDVKSYNPALKSRLTISKDTSSSQVFLRIASVDTADTATYYCARIGDGYYSFDYWGQGTTLTVSS
VL: DIVMTQSHKFMSTSVGDRVSISCKASQDVSDAVAWFQQKPGQSPKLLIYSPSYRYTGVPDRFTGSGSGTDFTFTISSVQAEDLAVYYCQQHYSTPWTFGGGTKLEIKR
As to B1, the “IC50 of inhibition of AP dependent hemolysis of rRBC in 10% normal human serum” value is 10 nM.
